{"source": "patent US20260028402A1", "about": "(published 2026)", "binders": {"B1": {"name": "A31 (antibody, V domains shown)", "VH": "EVQLVESGGGLVQPEGSLRLSCAASGFPLDYYAIGWFRQAPGKEREGVSCIISGGSTKYSASVKGRFTISRDSANNTVYLQMNSLKPEDTAVYFCAVSWSCDLFPRDTYGWDAWGQGTLVTVSS"}, "B2": {"name": "A31-VHH1 (antibody, V domains shown)", "VH": "B1 VH with N75K, K86R, P87A"}, "B3": {"name": "A9-VHH2 (antibody, V domains shown)", "VH": "QVQLVESGGGLVQAGGSLRLSCAASGFSLDYYAIGWFRQAPGKEREEVSCISSSGGSTDYADSVKGRFTISRAYAKVYLQMNSLRAEDTAVYYCAAGVSGSVCPPLIGAYWGQGTLVTVSS"}, "B4": {"name": "A9-VHH3 (antibody, V domains shown)", "VH": "B3 VH with E44G, R45L"}, "B5": {"name": "A9 (antibody, V domains shown)", "VH": "B3 VH with R85K, A86P, L116Q"}, "B6": {"name": "m18 (antibody, V domains shown)", "VH": "EVQLVESGGGLVQPGGSLRLSCAASRTDSNIHGMHWYRQAPGKGREWVGMIFIDGNTIVTDSVKGRFTISRDNAKNTLYLQMNTLRAEDTAVYYCAADSRGYGRAWGQGTTVTVSS"}, "B7": {"name": "Avelumab (antibody, V domains shown)", "VH": "EVQLLESGGGLVQPGGSLRLSCAASGFTFSSYIMMWVRQAPGKGLEWVSSIYPSGGITFYADTVKGRFTISRDNSKNTLYLQMNSLRAEDTAVYYCARIKLGTVTTVDYWGQGTLVTVSS", "VL": "QSALTQPASVSGSPGQSITISCTGTSSDVGGYNYVSWYQQHPGKAPKLMIYDVSNRPSGVSNRFSGSKSGNTASLTISGLQAEDEADYYCSSYTSSSTRVFGTGTKVTVLG"}, "B8": {"name": "A9-VHH1 (antibody, V domains shown)", "VH": "B3 VH with A14P, R85K, A86P"}}, "key": {"[1]": {"biological_target": "CynoCD100-HEK293 (cynomolgus monkey)", "test": "FACS"}, "[2]": {"biological_target": "T1, full-length human CD100 protein HuCD100 on cells (human, UniProt Q92854 22-862)", "test": "FACS"}, "[3]": {"biological_target": "T2, full-length mouse CD100 protein MusCD100 on cells (mouse, UniProt O09126 24-861)", "T2 chain": "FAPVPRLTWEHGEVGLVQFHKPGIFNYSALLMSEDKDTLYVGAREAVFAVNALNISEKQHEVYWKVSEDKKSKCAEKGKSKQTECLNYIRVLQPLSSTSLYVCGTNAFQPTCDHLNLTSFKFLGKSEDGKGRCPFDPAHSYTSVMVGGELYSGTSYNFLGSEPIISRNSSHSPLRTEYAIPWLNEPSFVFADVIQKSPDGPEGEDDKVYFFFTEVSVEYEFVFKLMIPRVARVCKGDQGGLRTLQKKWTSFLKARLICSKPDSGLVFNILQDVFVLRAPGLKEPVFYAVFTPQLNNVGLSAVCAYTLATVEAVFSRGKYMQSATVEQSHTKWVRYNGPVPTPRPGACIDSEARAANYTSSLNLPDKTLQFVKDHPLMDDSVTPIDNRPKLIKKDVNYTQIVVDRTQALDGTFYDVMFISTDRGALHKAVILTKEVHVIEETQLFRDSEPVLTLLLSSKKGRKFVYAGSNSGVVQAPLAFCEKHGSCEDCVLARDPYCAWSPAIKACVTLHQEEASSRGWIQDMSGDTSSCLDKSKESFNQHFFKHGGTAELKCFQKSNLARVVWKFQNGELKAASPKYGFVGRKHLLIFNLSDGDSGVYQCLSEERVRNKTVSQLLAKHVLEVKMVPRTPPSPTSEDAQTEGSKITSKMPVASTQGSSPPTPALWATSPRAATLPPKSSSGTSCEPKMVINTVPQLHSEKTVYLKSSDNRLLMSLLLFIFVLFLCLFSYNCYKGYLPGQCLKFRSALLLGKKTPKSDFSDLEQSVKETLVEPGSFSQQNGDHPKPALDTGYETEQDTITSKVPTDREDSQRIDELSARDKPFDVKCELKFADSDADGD", "test": "FACS"}, "[4]": {"biological_target": "CynoCD100-HEK293 (cynomolgus monkey)", "test": "FACS", "remark": "listed apart in the source"}, "[5]": {"biological_target": "T2, full-length mouse CD100 protein …", "test": "FACS"}, "[6]": {"biological_target": "T1, full-length human CD100 protein HuCD100 …", "test": "FACS", "remark": "listed apart in the source"}, "[7]": {"biological_target": "CynoCD100-His (cynomolgus monkey)", "test": "ELISA; FIG. 5F"}, "[8]": {"biological_target": "T3, HuCD100-His (human, UniProt Q92854 22-734)", "test": "ELISA; FIG. 5D"}, "[9]": {"biological_target": "T4, MusCD100-His (mouse, UniProt O09126 24-733)", "T4 chain": "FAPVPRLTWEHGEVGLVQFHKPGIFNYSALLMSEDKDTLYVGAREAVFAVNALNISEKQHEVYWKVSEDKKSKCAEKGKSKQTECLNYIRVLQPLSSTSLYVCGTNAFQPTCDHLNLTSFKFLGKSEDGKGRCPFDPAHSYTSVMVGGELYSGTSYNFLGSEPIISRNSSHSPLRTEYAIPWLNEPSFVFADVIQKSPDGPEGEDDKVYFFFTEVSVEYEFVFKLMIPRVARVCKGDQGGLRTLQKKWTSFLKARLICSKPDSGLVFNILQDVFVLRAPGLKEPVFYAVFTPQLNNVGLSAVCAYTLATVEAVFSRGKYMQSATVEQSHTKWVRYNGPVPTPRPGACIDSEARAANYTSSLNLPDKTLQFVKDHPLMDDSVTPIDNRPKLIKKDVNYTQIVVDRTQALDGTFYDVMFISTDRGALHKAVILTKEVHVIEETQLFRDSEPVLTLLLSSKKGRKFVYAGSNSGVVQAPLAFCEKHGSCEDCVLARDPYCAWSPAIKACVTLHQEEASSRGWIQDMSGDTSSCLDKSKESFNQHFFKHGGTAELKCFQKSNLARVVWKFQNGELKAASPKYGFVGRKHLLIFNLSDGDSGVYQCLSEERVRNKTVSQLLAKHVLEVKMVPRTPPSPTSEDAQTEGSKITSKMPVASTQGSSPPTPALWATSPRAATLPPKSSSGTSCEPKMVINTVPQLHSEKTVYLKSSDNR", "test": "ELISA; FIG. 5E"}, "[10]": {"biological_target": "T1, full-length human CD100 protein HuCD100 …", "test": "FACS; HuPBMC cells"}, "[11]": {"biological_target": "T1, full-length human CD100 protein HuCD100 …", "test": "FACS binding; FIG. 11D"}, "[12]": {"biological_target": "T5, HuCD100-Fc (in-house prepared) (human, UniProt Q92854 22-734, biotinylated in the Plexin binding and blocking assays (sites not given))", "test": "FACS blocking; HuPlexin-B1-HEK293, FIG. 12B"}, "[13]": {"biological_target": "T5, HuCD100-Fc (in-house prepared)", "test": "FACS blocking; HuPlexin-B2-HEK293, FIG. 12D"}, "[14]": {"biological_target": "T6, MusCD100-Fc (mouse, UniProt O09126 24-733, biotinylated in the Plexin binding and blocking assays (sites not given))", "T6 chain": "T4 chain", "test": "FACS blocking; MusPlexin-B1-HEK293, FIG. 12F"}, "[15]": {"biological_target": "T5, HuCD100-Fc (in-house prepared)", "test": "FACS blocking; blocking of binding to HuPlexin-B1-HEK293"}, "[16]": {"biological_target": "T5, HuCD100-Fc (in-house prepared)", "test": "FACS blocking; FIG. 8B, blocking of binding to HuPlexin-B2-HEK293"}, "[17]": {"biological_target": "T3, HuCD100-His", "test": "ELISA"}, "[18]": {"biological_target": "T4, MusCD100-His", "test": "ELISA"}, "[19]": {"biological_target": "CynoCD100-His (cynomolgus monkey)", "test": "ELISA"}, "[20]": {"biological_target": "CynoCD100-HEK293 (cynomolgus monkey)", "test": "FACS", "remark": "listed apart in the source"}, "[21]": {"biological_target": "CynoCD100-His (cynomolgus monkey)", "test": "ELISA; FIG. 5C"}, "[22]": {"biological_target": "T7, cynomolgus monkey PD-L1 on cells (cynomolgus monkey, UniProt G7PSE7 19-290)", "T7 sequence (G7PSE7 entry or part of it)": "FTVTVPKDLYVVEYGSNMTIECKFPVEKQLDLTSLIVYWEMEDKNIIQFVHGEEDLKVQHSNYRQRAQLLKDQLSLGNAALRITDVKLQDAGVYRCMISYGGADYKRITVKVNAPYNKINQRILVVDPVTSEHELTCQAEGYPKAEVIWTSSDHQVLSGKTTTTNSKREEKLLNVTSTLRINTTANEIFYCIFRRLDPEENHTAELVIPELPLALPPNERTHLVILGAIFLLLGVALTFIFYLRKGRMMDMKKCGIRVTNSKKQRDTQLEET", "test": "FACS binding"}, "[23]": {"biological_target": "T7, cynomolgus monkey PD-L1 on cells", "test": "FACS binding", "remark": "listed apart in the source"}}, "note": "Changes are numbered by the printed parent chain. Like-named read-outs stand apart in the source and are kept apart here."}
{"binder": "B1", "values": [{"measurement": "EC50", "setting": "[1]", "value": 0.579, "unit": "nM"}, {"measurement": "EC50", "setting": "[2]", "value": 0.374, "unit": "nM"}, {"measurement": "EC50", "setting": "[3]", "value": 0.945, "unit": "nM"}, {"measurement": "EC50", "setting": "[4]", "value": 0.327, "unit": "nM"}, {"measurement": "EC50", "setting": "[5]", "value": 1.15, "unit": "nM"}, {"measurement": "EC50", "setting": "[6]", "value": 0.467, "unit": "nM"}, {"measurement": "EC50", "setting": "[7]", "value": 0.0512, "unit": "nM"}, {"measurement": "EC50", "setting": "[8]", "value": 0.0452, "unit": "nM"}, {"measurement": "EC50", "setting": "[9]", "value": 59.4, "unit": "nM"}, {"measurement": "EC50", "setting": "[10]", "value": 0.754, "unit": "nM"}, {"measurement": "EC50", "setting": "[11]", "value": 0.367, "unit": "nM"}, {"measurement": "IC50", "setting": "[12]", "value": 0.837, "unit": "nM"}, {"measurement": "IC50", "setting": "[13]", "value": "~4.24", "unit": "nM"}, {"measurement": "IC50", "setting": "[14]", "value": 9.86, "unit": "nM"}, {"measurement": "IC50", "setting": "[15]", "value": 1.06, "unit": "nM"}, {"measurement": "IC50", "setting": "[16]", "value": 2.48, "unit": "nM"}]}
{"binder": "B2", "values": [{"measurement": "EC50", "setting": "[5]", "value": 1.78, "unit": "nM"}, {"measurement": "EC50", "setting": "[6]", "value": 0.504, "unit": "nM"}, {"measurement": "EC50", "setting": "[17]", "value": 0.202, "unit": "nM"}, {"measurement": "EC50", "setting": "[18]", "value": 0.23, "unit": "nM"}, {"measurement": "EC50", "setting": "[19]", "value": 0.131, "unit": "nM"}, {"measurement": "EC50", "setting": "[10]", "value": 0.356, "unit": "nM"}, {"measurement": "EC50", "setting": "[11]", "value": 0.413, "unit": "nM"}, {"measurement": "IC50", "setting": "[12]", "value": 0.8, "unit": "nM"}, {"measurement": "IC50", "setting": "[13]", "value": 5.43, "unit": "nM"}, {"measurement": "IC50", "setting": "[14]", "value": 4.84, "unit": "nM"}]}
{"binder": "B3", "values": [{"measurement": "EC50", "setting": "[20]", "value": 0.516, "unit": "nM"}, {"measurement": "EC50", "setting": "[19]", "value": 0.743, "unit": "nM"}]}
{"binder": "B4", "values": [{"measurement": "EC50", "setting": "[20]", "value": 0.835, "unit": "nM"}, {"measurement": "EC50", "setting": "[19]", "value": 1.31, "unit": "nM"}]}
{"binder": "B5", "values": [{"measurement": "EC50", "setting": "[1]", "value": 0.776, "unit": "nM"}, {"measurement": "EC50", "setting": "[20]", "value": 0.47, "unit": "nM"}, {"measurement": "EC50", "setting": "[21]", "value": 0.178, "unit": "nM"}]}
{"binder": "B6", "values": [{"measurement": "EC50", "setting": "[22]", "value": 0.242, "unit": "µg/mL"}]}
{"binder": "B7", "values": [{"measurement": "EC50", "setting": "[23]", "value": 0.988, "unit": "µg/mL"}]}
{"binder": "B8", "values": [{"measurement": "EC50", "setting": "[20]", "value": 0.551, "unit": "nM"}, {"measurement": "EC50", "setting": "[19]", "value": 0.169, "unit": "nM"}]}
